Laboratory results as given in US20250161356A1.
Blank lines part the entries; values can stand above or below the substance they belong to.

How the values were obtained:
[1] = molecular target: BTN2A1-BTN3A1-zipper ectodomain complex (wild type) (human) (UniProt Q7KYR7); assay: flow cytometry, complex tetramer MFI on transfected BTN2A.BTN3A KO HEK293T cells; mean ± SEM; control
[2] = molecular target: BTN2A1-BTN3A1 complex peptide on (human); assay: PE-labelled BTN2A1-BTN3A1 complex tetramer on BTN2A.BTN3A-knockout HEK293T cells transfected with the TCR and CD3; reduced against WT G115; full-length, on cells
[3] = molecular target: full-length human BTN3A1 on transfected cells (human) (UniProt O00481); assay: flow cytometry, γδTCR tetramer-PE on BTN3A1+ NIH-3T3 cells, isotype (IgG1κ)-treated (black number), GFP+ gate; SAv ctl 28
[4] = molecular target: full-length human BTN3A1 on transfected cells (human) (UniProt O00481); assay: flow cytometry, control tetramer-PE on BTN3A1+ NIH-3T3 cells, isotype (IgG1κ)-treated (black number), GFP+ gate; SAv ctl 25
[5] = molecular target: BTN2A1 on transfected cells (human) (UniProt Q7KYR7); assay: flow cytometry, control tetramer-PE on BTN2A1+ NIH-3T3 cells, mAb 20.1-treated (grey number), GFP+ gate; SAv ctl 22
[6] = molecular target: G115 Vγ9Vδ2+ TCR His85γ-Ala on transfected HEK293T cells (human); assay: flow cytometry, tetramer-PE versus CD3-APC on HEK293T cells co-transfected with CD3 and G115 His85γ-Ala TCR; SAv ctl 27
[7] = molecular target: G115 Vγ9Vδ2+ TCR wild-type, full-length, on transfected HEK293T cells (human); assay: flow cytometry, tetramer-PE versus CD3-APC on HEK293T cells co-transfected with CD3 and G115 WT TCR; SAv ctl 27
[8] = molecular target: G115 Vγ9Vδ2+ TCR Lys53δ-Ala on transfected HEK293T cells (human); assay: flow cytometry, tetramer-PE versus CD3-APC on HEK293T cells co-transfected with CD3 and G115 Lys53δ-Ala TCR; SAv ctl 27
[9] = molecular target: G115 Vγ9Vδ2+ TCR Glu52δ-Ala on transfected HEK293T cells (human); assay: flow cytometry, tetramer-PE versus CD3-APC on HEK293T cells co-transfected with CD3 and G115 Glu52δ-Ala TCR; SAv ctl 32

Sequence of BTN2A1 on transfected cells (human) (Q7KYR7 29-527 limits assumed): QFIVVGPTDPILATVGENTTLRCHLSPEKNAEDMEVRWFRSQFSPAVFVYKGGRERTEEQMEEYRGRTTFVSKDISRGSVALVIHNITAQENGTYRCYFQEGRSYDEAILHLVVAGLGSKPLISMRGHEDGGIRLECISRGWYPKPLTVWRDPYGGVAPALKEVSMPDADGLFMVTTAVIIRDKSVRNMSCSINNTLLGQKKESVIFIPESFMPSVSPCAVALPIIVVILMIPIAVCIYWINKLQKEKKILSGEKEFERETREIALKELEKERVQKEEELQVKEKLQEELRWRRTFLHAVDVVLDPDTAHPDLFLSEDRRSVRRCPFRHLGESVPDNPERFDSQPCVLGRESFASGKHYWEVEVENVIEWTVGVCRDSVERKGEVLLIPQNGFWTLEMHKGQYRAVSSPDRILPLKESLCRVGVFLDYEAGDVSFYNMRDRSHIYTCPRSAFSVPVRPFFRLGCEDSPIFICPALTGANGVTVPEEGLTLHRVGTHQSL
Sequence of G115 Vγ9Vδ2+ TCR His85γ-Ala on transfected HEK293T cells (human) (TCR delta, as listed by the source, chain 1 of 2): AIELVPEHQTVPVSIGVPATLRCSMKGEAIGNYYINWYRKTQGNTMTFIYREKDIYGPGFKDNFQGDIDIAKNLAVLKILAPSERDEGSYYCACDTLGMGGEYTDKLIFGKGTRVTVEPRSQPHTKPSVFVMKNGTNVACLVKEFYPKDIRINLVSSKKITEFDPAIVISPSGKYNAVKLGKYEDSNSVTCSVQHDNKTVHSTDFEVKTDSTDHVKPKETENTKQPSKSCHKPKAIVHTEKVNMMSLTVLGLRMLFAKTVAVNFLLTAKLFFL
Sequence of G115 Vγ9Vδ2+ TCR His85γ-Ala on transfected HEK293T cells (human) (TCR gamma, as listed by the source, chain 2 of 2): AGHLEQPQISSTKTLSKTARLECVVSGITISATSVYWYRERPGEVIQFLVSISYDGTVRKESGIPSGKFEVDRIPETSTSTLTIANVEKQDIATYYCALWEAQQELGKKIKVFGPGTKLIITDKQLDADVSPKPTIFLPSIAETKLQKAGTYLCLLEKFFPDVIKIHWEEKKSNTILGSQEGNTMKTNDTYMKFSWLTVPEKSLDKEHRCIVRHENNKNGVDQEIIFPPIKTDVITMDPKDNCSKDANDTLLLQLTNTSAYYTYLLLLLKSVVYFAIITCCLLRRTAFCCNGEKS

Substance: G115 Vγ9Vδ2+ TCR K53D
- fold change of tetramer MFI against WT G115 TCR [2]: 0.8 fold

Substance: chimeric γδTCR tetramer: G115 Vγ9+ γ-chain with 9C2 Vδ1+ δ-chain
- MFI of PE [3]: 24

Substance: mCD1d tet. ctl
- MFI of PE [4]: 32
- MFI of PE [5]: 20
- median fluorescence of PE [6]: 22
- median fluorescence of PE [7]: 20
- median fluorescence of PE [8]: 23
- median fluorescence of PE [9]: 28

Continued, values first:

- fold-change of BTN2A1-BTN3A1 complex tetramer MFI relative to WT G115 TCR [1]: 0.3 fold
Substance: CD3 complex on HEK293T cells transfected with CD3 only (receptor)

- fold change of tetramer MFI against WT G115 TCR [2]: 0.7 fold
Substance: G115 Vγ9Vδ2+ TCR K53E
